Source: publication PMC4475299, “Characterization and applications of Nanobodies against human procalcitonin selected from a novel naïve Nanobody phage display library” (Journal of Nanobiotechnology, 2015)

B1: PCT Nb2 (VHH)
VHH: QVQLQESGGGSVQAGGSLRLSCAASTSSNVNVCMGWFRQAPGKEREGVAVIARDSETNYAASVKGRFTISQDNAKNTLYLQLNSLKPEDTAMYYCAAGPCANIRGSWSNSRLLRYNFWGQGTQVTVSS
notes: VHH from a naïve bactrian camel phage display library; Expressed from phagemid pMECS; source: E. coli WK6, periplasmic extract by osmotic shock, purified (Ni-NTA, 500 mM imidazole); not shown: HA, C-terminal, kept
B2: PCT Nb1 (VHH)
VHH: QVQLQESGGGSVQAGGSLRLSCLASGYTYSSYCMGWFRQAPGKEREGVAAIGSDGSTSYADSVKGRFTISQDNAKNTLYLQMNSLKPEDTAMYYCAASKSEYDCYSGSGGLFGYWGQGTQVTVSS
notes: as for B1
B3: PCT Nb3 (VHH)
VHH: QVQLQESGGGSVQVGGSLRLSCAASGYTYSSACMGWFRQAPGKEREWVGSIVSDSDDRTNYADAVKGRFTITQDNAKNTVYLQMNSLKPEDTAMYYCAARPGNCFIATKTRRYDYWGQGTQVTVSS
notes: as for B1

target: T1, human procalcitonin (Homo sapiens, UniProt P01258); assay: SPR; SPRi on PlexArray HT; Nbs spotted and immobilised on NanoCapture 3D-chip; PCT injected at 9.7, 29.2, 87.6 and 263 nM in PBST, 2 uL/s; 1:1 Langmuir fit; details: both partners purified
T1 construct: human procalcitonin (PCT), the product of preprocalcitonin after removal of the signal peptide; Bought protein; also called PCT; source: bought: Huibiao Biological Technology Co., Ltd

For B1, which Kd is on record?
The Kd was 1.34 nM.

And the koff?
Its koff is 0.000197 s⁻¹.

And the kon?
The kon was 147000 M⁻¹ s⁻¹.

Which Kd does the source give for B2 here?
Its Kd is 12.3 nM.

What about the koff of the same binder?
Its koff is 0.00051 s⁻¹.

What about the kon of the same binder?
Its kon is 41600 M⁻¹ s⁻¹.

For B3, which Kd is on record?
Its Kd is 8.89 nM.

What about the koff of the same binder?
The koff was 0.000383 s⁻¹.

And the kon?
Its kon is 43100 M⁻¹ s⁻¹.
